Laboratory results taken from article PMC2206725, “Characterization of a negative transcriptional element in the BRCA1 promoter”.

Target: GABP alpha (MBP fusion from pMAL-C2);GABP beta (MBP fusion from pMAL-C2) (Homo sapiens;Homo sapiens, UniProt Q06546;Q06547 1-454;1-395, |)
Assay: EMSA; Bandshift conditions as in ref [16], not given; 6% nondenaturing acrylamide gel; recombinant proteins eluted in 25 mM HEPES pH 7.6, 0.1 mM EDTA, 40 mM KCl, 10%
Details: protein: recombinant;recombinant; tags: MBP N-terminal (pMAL-C2 vector);MBP N-terminal (pMAL-C2 vector); copies: 1;1; label: 32P

Sequence of GABP alpha (MBP fusion from pMAL-C2);GABP beta (MBP fusion from pMAL-C2) (Q06546 whole entry, chain 1 of 2, the tested form may be a part): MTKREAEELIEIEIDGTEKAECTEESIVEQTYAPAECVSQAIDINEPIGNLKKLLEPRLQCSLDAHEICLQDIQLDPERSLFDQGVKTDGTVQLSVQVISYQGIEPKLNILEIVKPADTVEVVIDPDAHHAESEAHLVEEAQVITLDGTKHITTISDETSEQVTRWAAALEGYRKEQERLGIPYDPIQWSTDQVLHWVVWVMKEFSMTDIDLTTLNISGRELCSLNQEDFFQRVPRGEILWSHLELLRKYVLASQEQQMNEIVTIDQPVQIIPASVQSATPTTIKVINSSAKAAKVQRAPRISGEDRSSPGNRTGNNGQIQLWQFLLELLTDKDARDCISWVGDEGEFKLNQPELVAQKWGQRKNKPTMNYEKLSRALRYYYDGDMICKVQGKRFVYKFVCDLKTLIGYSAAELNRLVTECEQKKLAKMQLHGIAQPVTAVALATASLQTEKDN
Sequence of GABP alpha (MBP fusion from pMAL-C2);GABP beta (MBP fusion from pMAL-C2) (Q06547 whole entry, chain 2 of 2, the tested form may be a part): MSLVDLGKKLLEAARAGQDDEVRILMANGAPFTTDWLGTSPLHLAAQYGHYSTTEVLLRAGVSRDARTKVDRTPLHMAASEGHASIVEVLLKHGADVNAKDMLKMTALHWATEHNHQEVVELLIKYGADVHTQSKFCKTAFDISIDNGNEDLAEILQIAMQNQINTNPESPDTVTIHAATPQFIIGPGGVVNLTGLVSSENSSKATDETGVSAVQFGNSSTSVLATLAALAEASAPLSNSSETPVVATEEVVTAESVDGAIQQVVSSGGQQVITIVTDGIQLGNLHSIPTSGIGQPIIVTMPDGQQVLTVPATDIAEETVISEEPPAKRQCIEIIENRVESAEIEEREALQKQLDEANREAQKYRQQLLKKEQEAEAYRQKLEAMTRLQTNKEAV

Binder | binding result
UP (dsDNA) DNA 1: CCTTGGTTTCCGTGGCAACGGAACCTT DNA 2: AAGGTTCCGTTGCCACGGAAACCAAGG | binds
UPFR6mGAmUS (dsDNA) DNA 1: CCTTGGTTTAAGTGGCGGTTTAAAAGCGCGGGAATTACAG DNA 2: CTGTAATTCCCGCGCTTTTAAACCGCCACTTAAACCAAGG | no binding
UPFR6mUP (dsDNA) DNA 1: CCTTCTTTTAAGTTTCAACGGAAAAGCGCGGGAATTACAG DNA 2: CTGTAATTCCCGCGCTTTTCCGTTGAAACTTAAAAGAAGG | no binding
UPFR6 (dsDNA) DNA 1: CCTTGGTTTCCGTGGCAACGGAAAAGCGCGGGAATTACAG DNA 2: CTGTAATTCCCGCGCTTTTCCGTTGCCACGGAAACCAAGG | binds
UPFR6mGA (dsDNA) DNA 1: CCTTGGTTTAAGTGGCAACGGAAAAGCGCGGGAATTACAG DNA 2: CTGTAATTCCCGCGCTTTTCCGTTGCCACTTAAACCAAGG | no binding
UPFR6mUS (dsDNA) DNA 1: CCTTGGTTTCCGTGGCGGTTTAAAAGCGCGGGAATTACAG DNA 2: CTGTAATTCCCGCGCTTTTAAACCGCCACGGAAACCAAGG | binds
